{"source": "a protein production outcome set (Wang et al. 2014)", "test": "label from the status in PepcDB records"}
{"sequence": "MSFSTEIEVRFKHCDPAGIVFFPRYFEMINDVVEDWFANDLGCPFHELVKENGAPTAQIQARFTAPSLHGDVLSFRLTPTRIGNSSLDYDLTAHCGDELRLRATATLVHVARLGRSQPWPQAIRERVAAQIDSALEHHHHHH", "values": [{"measurement": "protein production", "result": "failed"}]}
{"sequence": "MSIDLKKRKVEEDVRSRGKNSKIFSPFRIIGNVSNGVPFATGTLGSTFYIVTCVGKTFQIYDANTLHLLFVSEKETPSSIVALSAHFHYVYAAYENKVGIYKRGIEEHLLELETDANVEHLCIFGDYLCASTDDNSIFIYKKSDPQDKYPSEFYTKLTVTEIQGGEIVSLQHLATYLNKLTVVTKSNVLLFNVRTGKLVFTSNEFPDQITTAEPAPVLDIIALGTVTGEVIMFNMRKGKRIRTIKIPQSRISSLSFRTDGSSHLSVGTSSGDLIFYDLDRRSRIHVLKNIHRESYGGVTQATFLNGQPIIVTSGGDNSLKEYVFDPSLSQGSGDVVVQPPRYLRSRGGHSQPPSYIAFADSQSHFMLSASKDRSLWSFSLRKDAQSQEMSQRLHKKQDGGRVGGSTIKSKFPEIVALAIENARIGEWENIITAHKDEKFARTWDMRNKRVGRWTFDTTDDGFVKSVAMSQCGNFGFIGSSNGSITIYNMQSGILRKKYKLHKRAVTGISLDGMNRKMVSCGLDGIVGFYDFNKSTLLGKLKLDAPITAMVYHRSSDLFALALDDLSIVVIDAVTQRVVRQLWGHSNRITAFDFSPEGRWIVSASLDSTIRTWDLPTGGCIDGIIVDNVATNVKFSPNGDLLATTHVTGNGICIWTNRAQFKTVSTRTIDESEFARMALPSTSVRGNDSMLSGALESNGGEDLNDIDFNTYTSLEQIDKELLTLSIGPRSKMNTLLHLDVIRKRSKPKEAPKKSEKLPFFLQLSGEKVGDEASVREGIAHETPEEIHRRDQEAQKKLDAEEQMNKFKVTGRLGFESHFTKQLREGSQSKDYSSLLATLINFSPAAVDLEIRSLNSFEPFDEIVWFIDALTQGLKSNKNFELYETFMSLLFKAHGDVIHANNKNQDIASALQNWEDVHKKEDRLDDLVKFCMGVAAFVTTA", "values": [{"measurement": "protein production", "result": "failed"}]}
{"sequence": "MLRMKKFLVVFFLVQSIFVFAQQSKKVESALKTFNSGKIDDGIKKMEAATQEDPSEDNWDLLVQMYKYRYEYAEQQQEDALTLLLLQSLGGSKAKIKKYTSPSVCYRDLIEKSKQAELNSRSTTASMVLRAYLVDYYPDTAVADTAKKEFNSAEKYFSEKDYPNAKLHYQNACKLDPSYYKALIYLGDTHWHMKKMDSAIYYFKQGIQMHGDLLEPRKYLVDALRDSKQYDEAIQESINAITVYPDESMFEKVESLYAKTGRTFDRHWIKRGCNVNTYAGTQLVTTNETWKAYQQARGEIKTYCDTNGVIVKSNSLTKAHYMEVYSWEKMLASNLVVPQELAFAKKMADEGYLDCYVFISLYHYDEYDQFIDFAKNNKERIRTYITKYLIQ", "values": [{"measurement": "protein production", "result": "failed"}]}
{"sequence": "MTGLINAIPATNKDEYKNVGVYIEHRGDELKRPSIEMIGIGKQLARKVNEKLICVVIGDKVDGIAKEVGEYGCDIVLAAESPELAEYRTMPYAEIIGGYIQEYKPNIFLLAATRNGRDLASRIAVKSRTGITADCTVLDIDENRTLLANRPTYGESTLAEILCRNHRPQMATARPGIFPPAEKEKDHKYEVIKKKVDVDKKLLGKQILKFIPRKSTDLTSAKIVVAGGLGLGGPDGFKMLEELANLIGGAVGSSRPPVDLGWITRDHQVGQTGQSVRPDLYIAVGISGKPQHIAGMKFSKVIVSINKDPNAEITKYSDYIITEDYRKVIPALIDAIKNSKKAQAPVQKA", "values": [{"measurement": "protein production", "result": "failed"}]}
{"sequence": "MISWRDRLTKALPQIAVVVHDLLMVWVCWQLLHAGRYSMLRDAPNLPLWDWRTAVVLVAQGLVFWKMGLYRGLWRFASVPDLWNIFKASFLGLVAIVLALAYDRLDGVPLSVLVVYPFALSALLGTPRLLYRAWKDYQIAHSGDAAQRVLILGAGRAAEGLVRDLRRTGAFVPVGYLDDANNLHGAKIQGLNVLGNLDQAAAIAKETAAKLLVIAIPSLDASGMQRVVAICESTGLPFRMVPKLINVLEGRSLPGELKEVAIEDLLNRKPVTPDWRLIRDWLTNKTVMVTGAGGSIGSEVCRQCARHGARRIVLLEIDELALLTIDSDLRRLFPDIEVVRVLGDCGDPAVVAHALNTATPDAVFHAAAYKQVPLLEEQLREAVRNNVLATENVARACQRARIETFVFISTDKAVEPVNVLGASKRYAEMICQSLDARDAPTRFITVRFGNVLDSAGSVVPLFREQIRQGGPVTVTHPDVTRYFMTIPEACQLVIQAAASASHGAIYTLDMGEPVPIRLLAEQMIRLAGKQPGKDVAILYTGLRPGEKLHETLFYSDEAYRPTAHPKILEAGVREFSHEQVLQLVMRLREAVNRYDIKAMETVLGSLMPDFAAARRKVDARSDTVVPFPAREVRRL", "values": [{"measurement": "protein production", "result": "failed"}]}
{"sequence": "AEIVEGRDYTVLSAPQPTEGDSEHIEVIEFFWYGCPHCSDLHPHLSRWLENKPADVAFRFVPAILRNNWVPGAKTFYAMESLGLTQTLHDKVYHAIHREKTDLSKEATLFDWIGKQGVDRDKFIGAYNSFTVQNQANRSAQMIRQYKLTGVPALVVDGRYLTSGKAGGTPQDTISVLNQLIEK", "values": [{"measurement": "protein production", "result": "failed"}]}
{"sequence": "MINRDFIISFIVVTCIIYLIYVCYGKYLEKKQIYLKTLTIFLIIEVLRRIFIYGKVNNRLISGLSFIQLIFLGISVAMYGLMYFKNNLS", "values": [{"measurement": "protein production", "result": "failed"}]}
{"sequence": "MIPQIPLPMLSEGKDCKIREVLAGKALKRRLTEMGFTPSSSIRLIGCERGNLLVNVNGARYALGKGMAMKIMVEPD", "values": [{"measurement": "protein production", "result": "failed"}]}
{"sequence": "MGSKKQIRVQNISHDNIYSGLRCFVDGSWKGSDKFSGLGWFCRSSNGDSPTMGAANLRRSLYPLHTEVEALLWSMKCMIGADNQEVAFFTDYSDLVKMVSSPTE", "values": [{"measurement": "protein production", "result": "failed"}]}
{"sequence": "MVLAGGVGKRLLPLTRERPKPYLPLAGKPLYMYAVEQVAMVRSLLDRAVMVTPPGHPTPPGSLPSWLDTVEQQGEGVEAGLATALKRLGGGEEVVVSFVGYLARPNTLVRHVLDFYSVTRYKLVLALAPVTRGSESFGFVDADPSTGRVLGFSGSREEWMAGRGRVFAGVLAGDPEALEVLAGEGFVEGINTLARRGLVGSVVWPGEWLEVGYPCDLLEAPRLVVEAWAAVISAKARVARSSVIQGGVVIEEDAEVGEGAVVEGPAYLGRGAVVGRNSVVGPGVVLEEGAVVGDLVSIERSVMLERAEASGPSRLEGVVIGDGAYIAPLAAATNREGCTVVAPKTRLGPRATLEPGKTYTLEHHHHHH", "values": [{"measurement": "protein production", "result": "failed"}]}
{"sequence": "CKLCLGEYPVEQMTTIAQCQCIFCTLCLKQYVELLIKEGLETAISCPDAACPKQGHLQENEIECMVAAEIMQRYKKLQFER", "values": [{"measurement": "protein production", "result": "not failed"}]}
{"sequence": "IMDQDGRSMFADGSKVPFERTRLLLQRLAVPLRATPLRVTIVGHTSSGLMPERSDYNGWDLSSDRANSVRQILEREGLPGSHIFAVTGKADSQPLFPDDPSIAANRRVTITLMRESPALP", "values": [{"measurement": "protein production", "result": "failed"}]}
{"sequence": "MNKRLFYYLFAVLCTVTLFTSCSDDDGDDTPTVIPIEQEIAGDYKGTMDVYYVGVPDPIASGLSQKVYVTKASDTAVKLELRDFVFFLGSEELNLGTIAVENCPVTVEGTSYKFSGNQKMTLLVGDCDVAVSGTIGSGNLAMIVDVKVGGGTLQVKVDYKGTKLAGTESTEAKILSFTFDKSVEANAVVFSEPIVNEEDGTIVFEVLKDVTTDDLKKLVPTIEVSAKATVTPASGATVDFSSNKAIFTVVAEDGSSKIYTASISGRAFVVSYDFEEWDPVTHKPMLGNEETFTTPTGWCTSNYGIVEMGMFKPMLGVSGWLVTEESEGHNGKSALLRTINSKGGVGGLIPTITTGSLFLGTWSTNAGNTLNSTKFGNQFNNSLGRPVAVKGWYKYESGKDFYTCESDATDKATIDVSKGEYADQYSIKVSLYTTEEYDETGFSDYLTGESGDNNFYTSSRVVAKGGVEGGSTDGQWKEFTITLDYGDAEFDINQKYRFAIVCSSSKEGDKFWGAPESKLWVDDIEVIYKK", "values": [{"measurement": "protein production", "result": "failed"}]}
{"sequence": "MNAVHFGAGNIGRGFIGEILAKNGFHITFVDVNETIIQALKERKSYTIELADASHQQINVENVTGLNNMTEPEKVVEAIAEADLVTTAIGPNILPRIAELIAQGIDARAEANCQKPLDIIACENMIGGSTFLAEEVAKYLKNPAYAEQWIGFPDAAVDRIVPLQKHEDPLFVQVEPFCEWVIDDTNRKAKEIQLEGVHYVADLEPYIERKLFSVNTGHATVAYTGALLGYQTIDEAMQDALVVAQLKSVLQETGKLLVAKWNFDEQEHAAYIEKIIQRFQNKYISDAITRVARTPIRKLGAQERFIRPIRELQERNLVSPHLLAMIGIVFNYHDPEDEQSRQLQEMLDQESVDTVIAEVTGIEDPETVKNIKQNVERYARPQVA", "values": [{"measurement": "protein production", "result": "failed"}]}
